In this experiment the target is T1, Fusion protein of CD38 extracellular domain with His tag: CD38-ECD-His (human, UniProt P28907 43-300).
T1 construct: unlabelled analyte in Biacore; also called human CD38-ECD-His; Human CD38-His
The experiment is described as follows: SPR (Biacore), antibody captured by anti-human Fc, CD38-ECD-His as analyte.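 Further: human CD38-ECD-His flowed over the captured antibody with the signal tracked in real time, and association and dissociation curves were fitted to derive the affinity values.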 In general terms: SPR reads the build-up and loss of mass on a sensor chip optically.

Kd, koff and kon data for 18 molecules are collected here from patent US20220275100A1 (JIANGSU HENGRUI MEDICINE, published 2022).

Experimental: Then the human CD38-ECD-His antigen passed through the surface of the chip, and a real-time detection for the reaction signal was performed with Biacore instrument. The resulting binding and dissociation curves were fitted to calculate the affinity values. After the dissociation of each cycle was completed in the experiment, the biochip was washed and regenerated with the regeneration solution supplied in the Human Fc Capture Kit (GE).

B1: h160-01 (antibody, human IgG1, kappa)
heavy: not shown
light: DIVMTQSPASLAVSLGERATINCRASESVDNYGISFMHWYQQKPGQPPKLLIYRASNLESGVPDRFSGSGSGTDFTLTISSLQAEDVAVYYCQQTNKDPLTFGGGTKVEIKRTVAAPSVFIFPPSDEQLKSGTASVVCLLNNFYPREAKVQWKVDNALQSGNSQESVTEQDSKDSTYSLSSTLTLSKADYEKHKVYACEVTHQGLSSPVTKSFNRGEC
notes: Humanized, human IgG1 / kappa; h160 VH1 + h160 VL1
Broadly, the Kd is a measure of binding affinity in units of concentration. Low readings indicate higher affinity, high ones lower affinity. As a reminder, the koff is the first-order rate constant of dissociation. Higher therefore signals a short-lived complex. In general, kon refers to the second-order rate constant of association. A low value points to slower complex formation. Molecule B1 yielded a Kd of 0.0687 nM, a koff of 0.000136 s⁻¹ and an on-rate (kon) of 1.99e+06 M⁻¹ s⁻¹.

B2: h011-03 (antibody, human IgG1, kappa, V domains shown)
VH: EVQLVESGGGLVQPGGSLRLSCAASGFTFSDYGMHWVRQAPGKGLEWVAFISSGSSSIYYADTVKGRFTISRDNAKSSLYLQMTSLRAEDTAVYYCARNYVSSYGYFDYWGQGTTVTVSS
VL: DIVMTQSPDSLAVSLGERATINCRASENVDNYGISFMHWYQQKPGQPPKLLIYRASNLESGVPDRFSGSGSRTDFTLTISSLQAEDVAVYYCQQSNKDPLTFGGGTKVEIKR
For the molecule B2, the Kd came out at 0.306 nM, the dissociation rate constant (koff) was found to be 0.00213 s⁻¹ and the kon amounted to 6.97e+06 M⁻¹ s⁻¹.

B3: h011-04 (antibody, human IgG1, kappa, V domains shown)
VH: EVQLVESGGGLVQPGGSLRLSCAASGFTFSDYGMHWVRQAPGKGLEWVAFISSGSSSIYYADTVKGRFTISRDNAKSSLFLQMTSLRAEDTAVYSCARNYVSSYGYFDYWGQGTTVTVSS
VL: DIVMTQSPDSLAVSLGERATINCRASENVDNYGISFMHWYQQKPGQPPKLLIYRASNLESGVPDRFSGSGSRTDFTLTISSLQAEDVAVYYCQQSNKDPLTFGGGTKVEIKR
As to B3, binding was characterised by a dissociation constant (Kd) of 0.299 nM, the koff was 0.00202 s⁻¹ and the kon amounted to 6.76e+06 M⁻¹ s⁻¹.

B4: h011-02 (antibody, human IgG1, kappa, V domains shown)
VH: EVQLVESGGGLVQPGGSLRLSCAASGFTFSDYGMHWVRQAPGKGLEWVAFISSGSSSIYYADTVKGRFTISRDNAKSSLFLQMTSLRAEDTAVYSCARNYVSSYGYFDYWGQGTTVTVSS
VL: DIVMTQSPDSLAVSLGERATINCRASENVDNYGISFMHWYQQKPGQPPKLLIYRASNLESGVPDRFSGSGSGTDFTLTISSLQAEDVAVYYCQQSNKDPLTFGGGTKVEIKR
As for B4, binding was characterised by a dissociation constant (Kd) of 0.297 nM, the koff was found to be 0.00195 s⁻¹ and the kon is 6.59e+06 M⁻¹ s⁻¹.

B5: h011-05 (antibody, human IgG1, kappa, V domains shown)
VH: EVQLVESGGGLVQPGGSLRLSCAASGFTFSDYGMHWVRQAPGKGLEWVAFISSGSSSIYYADTVKGRFTISRDNAKSSLYLQMTSLRAEDTAVYYCARNYVSSYGYFDYWGQGTTVTVSS
VL: DIVMTQSPDSLAVSLGERATINCRASENVDNYGISFMHWYQQKPGQPPKLLIYRASNLESGIPDRFSGSGSRTDFTLTISSLQAEDVATYYCQQSNKDPLTFGGGTKVEIKR
B5 returned a Kd of 0.309 nM, a koff of 0.00213 s⁻¹ and a kon of 6.89e+06 M⁻¹ s⁻¹.

B6: h160-02 (antibody, human IgG1, kappa)
heavy: not shown
light: DIVLTQSPASLAVSLGERATINCRASESVDNYGISFMHWYQQKPGQPPKLLIYRASNLESGVPDRFSGSGSGTDFTLTISSLQAEDVAVYYCQQTNKDPLTFGGGTKVEIKRTVAAPSVFIFPPSDEQLKSGTASVVCLLNNFYPREAKVQWKVDNALQSGNSQESVTEQDSKDSTYSLSSTLTLSKADYEKHKVYACEVTHQGLSSPVTKSFNRGEC
B6: binding was put at a Kd of 0.0846 nM, the koff was 0.000163 s⁻¹ and the kon was 1.93e+06 M⁻¹ s⁻¹.

B7: h160-03 (antibody, human IgG1, kappa, V domains shown)
VH: EVQLVESGGGLVQPGGSLRLSCAASGFTFSDYGMHWVRQAPGKGLEWVAFISTGSSNIYYVDKVKGRFTISRDNAKNTLYLQMTSLRAEDTAVYYCARNYVSSYGYFDYWGQGTTVTVSS
VL: DIVLTQSPASLAVSLGERATINCRASESVDNYGISFMHWYQQKPGQPPKLLIYRASNLESGVPARFSGSGSRTDFTLTISSLQAEDVAVYYCQQTNKDPLTFGGGTKVEIKR
For the molecule B7, the Kd is 0.0779 nM, the off-rate (koff) amounted to 0.000187 s⁻¹ and the kon is 2.4e+06 M⁻¹ s⁻¹.

B8: h011-01 (antibody, human IgG1, kappa)
heavy: not shown
light: DIVMTQSPDSLAVSLGERATINCRASENVDNYGISFMHWYQQKPGQPPKLLIYRASNLESGVPDRFSGSGSGTDFTLTISSLQAEDVAVYYCQQSNKDPLTFGGGTKVEIKRTVAAPSVFIFPPSDEQLKSGTASVVCLLNNFYPREAKVQWKVDNALQSGNSQESVTEQDSKDSTYSLSSTLTLSKADYEKHKVYACEVTHQGLSSPVTKSFNRGEC
notes: Humanized, human IgG1 / kappa; h011 VH1 + h011 VL1
B8 returned an equilibrium dissociation constant (Kd) of 0.311 nM, an off-rate (koff) of 0.00208 s⁻¹ and a kon of 6.68e+06 M⁻¹ s⁻¹.

B9: h160-04 (antibody, human IgG1, kappa, V domains shown)
VH: EVQLVESGGGLVQPGGSLRLSCAASGFTFSDYGMHWVRQAPGKGLEWVAFISTGSSNIYYVDKVKGRFTISRDNAKNTLYLQMTSLRAEDTAVYYCARNYVSSYGYFDYWGQGTTVTVSS
VL: DIVLTQSPASLAVSLGERATISCRASESVDNYGISFMHWYQQKPGQPPKLLIYRASNLESGIPARFSGSGSRTDFTLTISSLQAEDVAVYYCQQTNKDPLTFGGGTKVEIKR
As to B9, binding was characterised by a dissociation constant (Kd) of 0.0867 nM, the koff came to 0.000184 s⁻¹ and the kon came to 2.12e+06 M⁻¹ s⁻¹.

B10: h009-07 (antibody, human IgG1, kappa)
heavy: not shown
light: EIVLTQSPATLSLSPGERATLSCRASQSIYTNLHWYQQKPGQSPRLLIKYASQSISGIPARFSGSGSGTDFTLTISSLEPEDFAVYYCQQSNSWPLTFGGGTKVEIKRTVAAPSVFIFPPSDEQLKSGTASVVCLLNNFYPREAKVQWKVDNALQSGNSQESVTEQDSKDSTYSLSSTLTLSKADYEKHKVYACEVTHQGLSSPVTKSFNRGEC
notes: Humanized, human IgG1 / kappa; h009 VH2 + h009 VL2
In the case of B10, the affinity, expressed as Kd, was 0.995 nM; the koff is 0.0021 s⁻¹; the kon turned out to be 2.11e+06 M⁻¹ s⁻¹.

B11: h009-15 (antibody, human IgG1, kappa, V domains shown)
VH: EFQLVQSGAEVKKPGASVKVSCKASGYTFTDYNLNWVKQAPGQSLEWIGVINPKYDAINYNQKFKDKATLTVDQSASTAYMELSSLRSEDTAVYYCAREGWGKALDYWGQGTLVTVSS
VL: EFVLTQSPATLSLSPGERATLSCRASQSIYTNLHWYQQKPGQSPRLLIKYASQSISGIPARFSGSGSGTDFTLTISSLEPEDFAVYFCQQSNSWPLTFGGGTKVEIKR
B11 had a Kd of 0.745 nM, a koff of 0.0017 s⁻¹ and a kon of 2.28e+06 M⁻¹ s⁻¹.

B12: h009-12 (antibody, human IgG1, kappa, V domains shown)
VH: EFQLVQSGAEVKKPGASVKVSCKASGYTFTDYNLNWVRQAPGQSLEWMGVINPKYDAINYNQKFKDRVTITVDTSASTAYMELSSLRSEDTAVYYCAREGWGKALDYWGQGTLVTVSS
VL: EFVLTQSPATLSLSPGERATLSCRASQSIYTNLHWYQQKPGQSPRLLIKYASQSISGIPARFSGSGSGTDFTLTISSLEPEDFAVYFCQQSNSWPLTFGGGTKVEIKR
For B12, the Kd was determined as 0.409 nM, the koff turned out to be 0.000917 s⁻¹ and the kon stood at 2.24e+06 M⁻¹ s⁻¹.

B13: h009-08 (antibody, human IgG1, kappa, V domains shown)
VH: EFQLVQSGAEVKKPGASVKVSCKASGYTFTDYNLNWVRQAPGQSLEWIGVINPKYDAINYNQKFKDRATITVDTSASTAYMELSSLRSEDTAVYYCAREGWGKALDYWGQGTLVTVSS
VL: EIVLTQSPATLSLSPGERATLSCRASQSIYTNLHWYQQKPGQSPRLLIKYASQSISGIPARFSGSGSGTDFTLTISSLEPEDFAVYYCQQSNSWPLTFGGGTKVEIKR
B13 gave a Kd of 1.18 nM, a koff of 0.00223 s⁻¹ and a kon of 1.89e+06 M⁻¹ s⁻¹.

B14: h009-14 (antibody, human IgG1, kappa, V domains shown)
VH: EFQLVQSGAEVKKPGASVKVSCKASGYTFTDYNLNWVKQAPGQSLEWMGVINPKYDAINYNQKFKDKVTLTVDQSASTAYMELSSLRSEDTAVYYCAREGWGKALDYWGQGTLVTVSS
VL: EFVLTQSPATLSLSPGERATLSCRASQSIYTNLHWYQQKPGQSPRLLIKYASQSISGIPARFSGSGSGTDFTLTISSLEPEDFAVYFCQQSNSWPLTFGGGTKVEIKR
On to B14, for which binding was characterised by a dissociation constant (Kd) of 0.815 nM, the koff was found to be 0.00185 s⁻¹ and the kon was found to be 2.27e+06 M⁻¹ s⁻¹.

B15: h009-09 (antibody, human IgG1, kappa, V domains shown)
VH: EFQLVQSGAEVKKPGASVKVSCKASGYTFTDYNLNWVKQAPGQSLEWMGVINPKYDAINYNQKFKDKVTLTVDQSASTAYMELSSLRSEDTAVYYCAREGWGKALDYWGQGTLVTVSS
VL: EIVLTQSPATLSLSPGERATLSCRASQSIYTNLHWYQQKPGQSPRLLIKYASQSISGIPARFSGSGSGTDFTLTISSLEPEDFAVYYCQQSNSWPLTFGGGTKVEIKR
The molecule B15 came in with a dissociation constant (Kd) of 2.14 nM, a dissociation rate constant (koff) of 0.00489 s⁻¹ and an on-rate constant (kon) of 2.29e+06 M⁻¹ s⁻¹.

B16: h009-10 (antibody, human IgG1, kappa, V domains shown)
VH: EFQLVQSGAEVKKPGASVKVSCKASGYTFTDYNLNWVKQAPGQSLEWIGVINPKYDAINYNQKFKDKATLTVDQSASTAYMELSSLRSEDTAVYYCAREGWGKALDYWGQGTLVTVSS
VL: EIVLTQSPATLSLSPGERATLSCRASQSIYTNLHWYQQKPGQSPRLLIKYASQSISGIPARFSGSGSGTDFTLTISSLEPEDFAVYYCQQSNSWPLTFGGGTKVEIKR
In the case of B16, the Kd is 2.12 nM, the dissociation rate constant (koff) was found to be 0.00433 s⁻¹ and the kon is 2.04e+06 M⁻¹ s⁻¹.

B17: h009-11 (antibody, human IgG1, kappa, V domains shown)
VH: EVQLVQSGAEVKKPGASVKVSCKASGYTFTDYNLNWVRQAPGQRLEWMGVINPKYDAINYNQKFKDRVTITRDTSASTAYMELSSLRSEDTAVYYCAREGWGKALDYWGQGTLVTVSS
VL: EFVLTQSPATLSLSPGERATLSCRASQSIYTNLHWYQQKPGQSPRLLIKYASQSISGIPARFSGSGSGTDFTLTISSLEPEDFAVYFCQQSNSWPLTFGGGTKVEIKR
On to B17, for which the Kd amounted to 5.17 nM, the koff was 0.0121 s⁻¹ and the association rate constant (kon) turned out to be 2.33e+06 M⁻¹ s⁻¹.

B18: h009-13 (antibody, human IgG1, kappa, V domains shown)
VH: EFQLVQSGAEVKKPGASVKVSCKASGYTFTDYNLNWVRQAPGQSLEWIGVINPKYDAINYNQKFKDRATITVDTSASTAYMELSSLRSEDTAVYYCAREGWGKALDYWGQGTLVTVSS
VL: EFVLTQSPATLSLSPGERATLSCRASQSIYTNLHWYQQKPGQSPRLLIKYASQSISGIPARFSGSGSGTDFTLTISSLEPEDFAVYFCQQSNSWPLTFGGGTKVEIKR
With B18, the Kd came out at 0.465 nM, the off-rate (koff) is 0.00106 s⁻¹ and the kon was found to be 2.28e+06 M⁻¹ s⁻¹.
